Patent US20220135700A1 (published 2022)
Read-outs that look alike come from different tables or passages of the source. Each block holds one binder with its values, some of them ahead of it.

Legend:
[1] = target: T1, HER2 on the surface of HER2 overexpressing cancer cells (BT474) (human, UniProt P04626 23-1255); test: flow cytometry, dissociation from BT474 cells in the presence of a competing DARPin (FIG. 18A)
T1 construct: whole, on cells; also called ErbB2; HER2/Neu
Description: Corresponding to 100 μl cell suspension, samples were washed twice in 1 ml PBS (0.2% NaN₃, 1% BSA) and centrifuged at 600 g for 30 sec at room temperature. Cells were resuspended in 1 ml PBS (0.2% NaN₃, 1% BSA) containing 100 nM of equivalent unlabeled binding agent. The dissociation reaction was incubated for the indicated times (15, 30, 60, 120, 180 and 240 min) at room temperature while continuously stirring in the dark. Dissociation was stopped by placing the cell pellets on ice. Each sample was washed once with 1 ml cold PBS.

[2] = target: T2, HER2 (form used in the assay not stated) (human, UniProt P04626 23-652, limits assumed); test: method not stated
T2 construct: also called ErbB2

[3] = target: T2, HER2 (form used in the assay not stated); test: method not stated; remark: listed apart in the source
[4] = target: T1, HER2 on the surface of HER2 …; test: flow cytometry on BT474 cells, Alexa488-labelled agent

off-rate, times lower than monovalent G3 [1]: 10 fold
B1: 9_26-(G4S)4-G3 (designed binder)
chain: MRGSHHHHHHGSDLGKKLLEAARAGQDDEVRILMANGADVNAKDFYGITPLHLAAAYGHLEIVEVLLKHGADVNAHDWNGWTPLHLAAKYGHLEIVEVLLKHGADVNAIDNAGKTPLHLAAAHGHLEIVEVLLKYGADVNAQDKFGKTAFDISIDNGNEDLAEILQKLGGGGSGGGGSGGGGSGGGGSRSDLGKKLLEAARAGQDDEVRILMANGADVNAKDEYGLTPLYLATAHGHLEIVEVLLKNGADVNAVDAIGFTPLHLAAFIGHLEIAEVLLKHGADVNAQDKFGKTAFDISIGNGNEDLAEILQKLN
notes: also called 6_20_G

Kd [2]: 1 nM | Kd [3]: 3.8 nM | koff [3]: 0.0008 s⁻¹ | kon [3]: 200000 M⁻¹ s⁻¹ | Kd [4]: 33.5 nM | koff [4]: 0.00221 s⁻¹ | kon [4]: 69000 M⁻¹ s⁻¹
B2: DARPin 929 (designed binder)
chain: MRGSHHHHHHGSDLGKKLLEAARAGQDDEVRILMANGADVNAHDFYGITPLHLAANFGHLEIVEVLLKHGADVNAFDYDNTPLHLAADAGHLEIVEVLLKYGADVNASDRDGHTPLHLAAREGHLEIVEVLLKNGADVNAQDKFGKTAFDISIDNGNEDLAEILQKLN

off-rate, times lower than monovalent G3 [1]: 10 fold
B3: 9_29-(G4S)4-G3 (designed binder)
chain: MRGSHHHHHHGSDLGKKLLEAARAGQDDEVRILMANGADVNAHDFYGITPLHLAANFGHLEIVEVLLKHGADVNAFDYDNTPLHLAADAGHLEIVEVLLKYGADVNASDRDGHTPLHLAAREGHLEIVEVLLKNGADVNAQDKFGKTAFDISIDNGNEDLAEILQKLGGGGSGGGGSGGGGSGGGGSRSDLGKKLLEAARAGQDDEVRILMANGADVNAKDEYGLTPLYLATAHGHLEIVEVLLKNGADVNAVDAIGFTPLHLAAFIGHLEIAEVLLKHGADVNAQDKFGKTAFDISIGNGNEDLAEILQKLN
notes: also called 9_20_G
